T1: human EphB1 (Homo sapiens, UniProt P54762)
T1 construct: a protein of the extracellular region of each human Eph receptor fused with the SEAP protein and the His tag; made in house; host or cells: Expi293F cells (culture supernatant)
T1 sequence (P54762 18-540 limits assumed): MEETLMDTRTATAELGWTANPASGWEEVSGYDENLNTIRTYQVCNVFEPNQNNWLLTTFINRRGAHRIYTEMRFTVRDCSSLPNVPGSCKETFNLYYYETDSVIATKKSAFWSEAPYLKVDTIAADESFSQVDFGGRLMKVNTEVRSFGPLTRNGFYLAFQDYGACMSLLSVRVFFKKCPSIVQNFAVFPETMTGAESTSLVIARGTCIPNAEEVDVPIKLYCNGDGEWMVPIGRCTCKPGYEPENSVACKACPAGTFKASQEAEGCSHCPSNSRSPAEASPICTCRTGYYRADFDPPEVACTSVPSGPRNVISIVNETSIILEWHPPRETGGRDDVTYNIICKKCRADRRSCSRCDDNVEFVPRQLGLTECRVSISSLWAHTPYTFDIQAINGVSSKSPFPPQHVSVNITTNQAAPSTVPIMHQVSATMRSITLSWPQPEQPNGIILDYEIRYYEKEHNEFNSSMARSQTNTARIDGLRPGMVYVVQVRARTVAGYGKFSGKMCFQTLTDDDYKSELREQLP

T2: human EphB2 (Homo sapiens, UniProt P29323)
T2 construct: a protein of the extracellular region of each human Eph receptor fused with the SEAP protein and the His tag; made in house; host or cells: Expi293F cells
T2 sequence (P29323 19-543 limits assumed): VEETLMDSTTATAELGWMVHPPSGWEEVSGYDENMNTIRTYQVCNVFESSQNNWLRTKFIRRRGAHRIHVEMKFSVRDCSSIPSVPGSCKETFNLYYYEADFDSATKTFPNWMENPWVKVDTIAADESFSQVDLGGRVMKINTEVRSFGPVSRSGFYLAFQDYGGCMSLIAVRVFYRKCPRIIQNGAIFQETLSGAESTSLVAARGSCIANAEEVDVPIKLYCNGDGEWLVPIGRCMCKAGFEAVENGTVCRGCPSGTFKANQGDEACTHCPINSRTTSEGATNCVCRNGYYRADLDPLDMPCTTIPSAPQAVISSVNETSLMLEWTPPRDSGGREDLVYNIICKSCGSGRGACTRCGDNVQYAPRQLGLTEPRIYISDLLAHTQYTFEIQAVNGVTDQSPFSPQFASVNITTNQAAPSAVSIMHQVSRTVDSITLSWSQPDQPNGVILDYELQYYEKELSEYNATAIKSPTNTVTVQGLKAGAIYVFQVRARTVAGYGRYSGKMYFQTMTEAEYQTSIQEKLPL

T3: human EphB3 (Homo sapiens, UniProt P54753)
T3 construct: a protein of the extracellular region of each human Eph receptor fused with the SEAP protein and the His tag; made in house; host or cells: Expi293F cells
T3 sequence (P54753 34-559 limits assumed): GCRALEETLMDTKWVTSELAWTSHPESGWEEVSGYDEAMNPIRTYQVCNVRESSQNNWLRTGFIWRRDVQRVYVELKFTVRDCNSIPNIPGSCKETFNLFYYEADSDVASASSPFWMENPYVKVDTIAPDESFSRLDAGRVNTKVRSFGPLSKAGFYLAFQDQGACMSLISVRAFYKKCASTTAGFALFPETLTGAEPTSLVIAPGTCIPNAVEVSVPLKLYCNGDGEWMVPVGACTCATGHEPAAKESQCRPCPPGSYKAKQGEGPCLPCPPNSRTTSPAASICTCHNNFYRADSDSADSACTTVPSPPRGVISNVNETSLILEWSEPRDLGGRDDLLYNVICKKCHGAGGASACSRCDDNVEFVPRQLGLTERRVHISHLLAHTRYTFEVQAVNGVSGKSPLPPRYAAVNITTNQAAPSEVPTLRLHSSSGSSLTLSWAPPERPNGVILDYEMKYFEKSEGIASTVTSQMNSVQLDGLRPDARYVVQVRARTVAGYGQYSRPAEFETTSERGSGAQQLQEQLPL


Key:
Experiment in all cases: Selectivity ELISA of humanized antibodies for human Eph receptor
Type in all cases: binding
Conditions in all cases: coated protein 1 nM
human EphA5 = target: T4, human EphA5 (Homo sapiens, UniProt P54756)
T4 construct: a protein of the extracellular region of each human Eph receptor fused with the SEAP protein and the His tag; made in house; host or cells: Expi293F cells (culture supernatant)
T4 sequence (P54756 25-573 limits assumed): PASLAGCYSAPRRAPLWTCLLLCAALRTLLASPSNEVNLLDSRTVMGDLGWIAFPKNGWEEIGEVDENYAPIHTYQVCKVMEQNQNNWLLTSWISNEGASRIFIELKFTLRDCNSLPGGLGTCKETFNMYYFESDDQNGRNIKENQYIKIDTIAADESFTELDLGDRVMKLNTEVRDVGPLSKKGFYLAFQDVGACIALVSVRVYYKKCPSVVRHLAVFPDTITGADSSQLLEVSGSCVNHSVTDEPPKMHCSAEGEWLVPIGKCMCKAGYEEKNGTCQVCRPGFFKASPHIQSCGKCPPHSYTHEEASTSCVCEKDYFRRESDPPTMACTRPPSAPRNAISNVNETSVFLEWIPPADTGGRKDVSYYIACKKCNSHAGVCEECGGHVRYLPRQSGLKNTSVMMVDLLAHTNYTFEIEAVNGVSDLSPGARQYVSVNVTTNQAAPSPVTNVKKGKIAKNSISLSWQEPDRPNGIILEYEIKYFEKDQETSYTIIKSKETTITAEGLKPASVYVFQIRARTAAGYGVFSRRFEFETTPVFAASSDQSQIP
Procedure, shortened: (§1)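 Capture ELISA: anti-6-His coat, 1% BlockAce block, Eph ECD-SEAP-His (1 nM final, Expi293F supernatant) 1 h RT, humanized Ab 1 h RT, HRP anti-IgG 1 h RT, TMB, H2SO4 stop, A450.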

human EphB1 = target: T1, human EphB1
Procedure, shortened: as §1

human EphB2 = target: T2, human EphB2
Procedure, shortened: as §1

human EphB3 = target: T3, human EphB3
Procedure, shortened: as §1

Molecule | hEphA5-SEAP-: absorbance at 450 nm, percentage with respect to hEphA4-SEAP-His as 100% (human EphA5) [%] | hEphB1-SEAP-: absorbance at 450 nm, percentage with respect to hEphA4-SEAP-His as 100% (human EphB1) [%] | hEphB2-SEAP-: absorbance at 450 nm, percentage with respect to hEphA4-SEAP-His as 100% (human EphB2) [%] | hEphB3-SEAP-: absorbance at 450 nm, percentage with respect to hEphA4-SEAP-His as 100% (human EphB3) [%]
139 (antibody, synthetic humanized antibody heavy chain variable region sequence; synthetic humanized antibody light chain variable region sequence; synthetic antibody constant region sequence) VH: QVQLVQSGSELKKPGASVKVSCKASGYTFTDYSMHWVRQAPGQGLEWMGWINTETGEPTYAQGFTGRFVFSLDTSVSTAYLQISSLKAEDTAVYYCARIPLYYYGSRYWYFDVWGQGTTVTVSS VL: DIQMTQSPSSLSASVGDRVTITCRASENIYRNLAWYQQKPGKAPKLLVYAATNLADGVPSRFSGSGSGTDYTLTISSLQPEDFATYYCQHFWGTPWTFGQGTKVEIK ASTKGPSVFPLAPSSRSTSESTAALGCLVKDYFPEPVTVSWNSGALTSGVHTFPAVLQSSGLYSLSSVVTVPSSNFGTQTYTCNVDHKPSNTKVDKTVERKSCVECPPCPAPPAAAPSVFLFPPKPKDTLMISRTPEVTCVVVDVSHEDPEVQFNWYVDGVEVHNAKTKPREEQFNSTFRVVSVLTVVHQDWLNGKEYKCKVSNKGLPAPIEKTISKTKGQPREPQVYTLPPSREEMTKNQVSLTCLVKGFYPSDIAVEWESNGQPENNYKTTPPMLDSDGSFFLYSKLTVDKSRWQQGNVFSCSVMHEALHNHYTQKSLSLSPG | 5.7 | 5.5 | 5.7 | 5.6
142 (antibody, V domains shown, synthetic humanized antibody heavy chain variable region sequence; synthetic humanized antibody light chain variable region sequence) VH: QVQLVQSGSELKKPGASVKVSCKASGYTFTDYSMHWVRQAPGQGLKWMGWINTETGEPTYADDFKGRFVFSLDTSVSTAYLQISSLKAEDTAVYYCARIPLYYYGSRYWYFDVWGQGTTVTVSS VL: DIQMTQSPSSLSASVGDRVTITCRASENIYRNLAWYQQKPGKAPKLLVYAATNLADGVPSRFSGSGSGTDYTLTISSLQPEDFATYYCQHFWGTPWTFGQGTKVEIK | 5.7 | 5.6 | 5.6 | 5.6
141 (antibody, V domains shown, synthetic humanized antibody heavy chain variable region sequence; synthetic humanized antibody light chain variable region sequence) VH: QVQLVQSGSELKKPGASVKVSCKASGYTFTDYSMHWVRQAPGQGLEWMGWINTETGEPTYADDFKGRFVFSLDTSVSTAYLQISSLKAEDTAVYYCARIPLYYYGSRYWYFDVWGQGTTVTVSS VL: DIQMTQSPSSLSASVGDRVTITCRASENIYRNLAWYQQKPGKAPKLLVYAATNLADGVPSRFSGSGSGTDYTLTISSLQPEDFATYYCQHFWGTPWTFGQGTKVEIK | 5.3 | 5.4 | 5.2 | 5.2
138 (antibody, V domains shown, synthetic humanized antibody heavy chain variable region sequence; synthetic humanized antibody light chain variable region sequence) VH: QIQLVQSGSELKKPGASVKVSCKASGYTFTDYSMHWVRQAPGQGLKWMGWINTETGEPTYAQGFTGRFVFSLDTSVSTAYLQISSLKAEDTAVYYCARIPLYYYGSRYWYFDVWGQGTTVTVSS VL: DIQMTQSPSSLSASVGDRVTITCRASENIYRNLAWYQQKPGKAPKLLVYAATNLADGVPSRFSGSGSGTDYTLTISSLQPEDFATYYCQHFWGTPWTFGQGTKVEIK | 5.1 | 5.1 | 5.2 | 5.1
140 (antibody, V domains shown, synthetic humanized antibody heavy chain variable region sequence; synthetic humanized antibody light chain variable region sequence) VH: QVQLVQSGSELKKPGASVKVSCKASGYTFTDYSMHWVRQAPGQGLKWMGWINTETGEPTYAQGFTGRFVFSLDTSVSTAYLQISSLKAEDTAVYYCARIPLYYYGSRYWYFDVWGQGTTVTVSS VL: DIQMTQSPSSLSASVGDRVTITCRASENIYRNLAWYQQKPGKAPKLLVYAATNLADGVPSRFSGSGSGTDYTLTISSLQPEDFATYYCQHFWGTPWTFGQGTKVEIK | 5.4 | 5.3 | 5.3 | 5.4

Continued, values first:

hEphA5-SEAP-: absorbance at 450 nm, percentage with respect to hEphA4-SEAP-His as 100% (human EphA5) [%] | hEphB1-SEAP-: absorbance at 450 nm, percentage with respect to hEphA4-SEAP-His as 100% (human EphB1) [%] | hEphB2-SEAP-: absorbance at 450 nm, percentage with respect to hEphA4-SEAP-His as 100% (human EphB2) [%] | hEphB3-SEAP-: absorbance at 450 nm, percentage with respect to hEphA4-SEAP-His as 100% (human EphB3) [%] | Molecule
6.1 | 5.9 | 5.8 | 5.9 | 143 (antibody, V domains shown, synthetic humanized antibody heavy chain variable region sequence; synthetic humanized antibody light chain variable region sequence) VH: QIQLVQSGSELKKPGASVKVSCKASGYTFTDYSMHWVRQAPGQGLKWMGWINTETGEPTYADDFKGRFVFSLDTSVSTAYLQISSLKAEDTAVYYCARIPLYYYGSRYWYFDVWGQGTTVTVSS VL: DIQMTQSPSSLSASVGDRVTITCRASENIYRNLAWYQQKPGKAPKLLVYAATNLADGVPSRFSGSGSGTDYTLTISSLQPEDFATYYCQHFWGTPWTFGQGTKVEIK
5.8 | 5.9 | 5.8 | 6.0 | 152 (antibody, V domains shown, synthetic humanized antibody heavy chain variable region sequence; synthetic humanized antibody light chain variable region sequence) VH: QVQLVQSGSELKKPGASVKVSCKASGYTFTDYSMHWVRQAPGQGLEWMGWINTETGEPTYAQGFTGRFVFSLDTSVSTAYLQISSLKAEDTAVYYCARIPLYYYGSRYWYFDVWGQGTTVTVSS VL: DIQMTQSPSSLSASVGDRVTITCRASENIYRNLAWYQQKPGKAPKLLLYAATNLADGVPSRFSGSGSGTDYTLTISSLQSEDFATYYCQHFWGTPWTFGQGTKVEIK

Reference: patent US10428140B2, “Anti-EphA4 antibody” (EISAI R&D MANAGEMENT CO., LTD., priority 2015, dated 2019)
